Data from patent US20250222068A1, “COMPOSITION FOR PREVENTING OR TREATING LUPUS COMPRISING RECOMBINANT STABILIZED GALECTIN-9 PROTEIN” (GBIOLOGICS INC., priority 2022, published 2025).

Experiments:
MRL/FAS^lpr mice [1] = assay: Clinical indicators (skin, lymphadenopathy, proteinuria scores) in an in vivo model of systemic lupus erythematosus; details: 9 weeks; for reduction in skin lesions compared to positive control (Mycophenolate) / skin lesions (skin score) compared to negative control (Vehicle): FIG. 2; for inhibitory effect on lymphadenopathy compared to positive control (Mycophenolate) / lymphadenopathy score compared to negative control (Vehicle): FIG. 3; for proteinuria compared to negative control (Vehicle): FIG. 4
From the text: Specifically, the occurrence and severity of lupus were regularly observed from group allocation to the end of the experiment in the experimental animals from <1-1> and evaluated according to the criteria shown in [Table 2].

MRL/FAS^lpr mice [2] = assay: Spleen weight in an in vivo model of systemic lupus erythematosus; details: sGal-9 2 mg/kg SC once per week, 9 weeks, FIG. 5
From the text: Additionally, after the completion of the experiment, the experimental animals from <1-1> were sacrificed, and the spleens were extracted for weight measurement.

MRL/FAS^lpr mice [3] = assay: Histomorphological evaluation of renal tissue (H&E staining); format: in vivo; details: 9 weeks, FIG. 6; for inflammatory cell infiltration within the glomeruli: H&E
From the text: Specifically, after the completion of the experiment, the experimental animals of <1-1> were sacrificed, and renal tissues were collected. The collected renal tissues were fixed and dehydrated in 10% formaldehyde and subsequently embedded in paraffin. The fixed renal tissues were sectioned to a thickness of 2 μm and stained with hematoxylin and eosin (H&E). The sectioned tissues were covered with a coverslip and observed under an optical microscope at 400× magnification. Four regions were imaged for each tissue, and two or more researchers assigned scores based on the evaluation items and criteria for histomorphological assessment shown in [Table 3]. The average of the researchers' scores was determined as the scoring value, and the mean of the scoring values for the four regions was calculated as the final score for each tissue.

MRL/FAS^lpr mice [4] = assay: IgG immunofluorescence staining of renal tissue; format: in vivo; details: 9 weeks, FIG. 7
Experimental: Additionally, the collected kidney tissues were frozen, sectioned at a thickness of 4 μm, and fixed in cold acetone for 5 minutes, followed by two washes with phosphate-buffered saline (PBS) for 5 minutes each. To eliminate non-specific reactions, blocking was performed for 30 minutes using a PBS solution containing 1% bovine serum albumin and 0.05% Tween-20. The sections were then incubated at room temperature for 1 hour with FITC-conjugated goat anti-mouse IgG antibody (1:200, AP308F, Merck Millipore). After three washes with PBS for 5 minutes each, nuclear staining was performed using DAPI, and the sections were covered with a cover glass using mounting medium. The samples were then examined using a confocal laser scanning microscope (C2 Plus, Nikon). […] Furthermore, it was confirmed that the glomerular lesion scores decreased in the positive control group (Mycophenolate) and the sGal-9 treatment groups (sGal-9 2 mg/kg and sGal-9 4 mg/kg) compared to the negative control group (Vehicle).

anti-dsDNA antibodies = assay: Plasma anti-dsDNA antibody levels (ELISA) in an in vivo model of systemic lupus erythematosus; design: species or system mice; details: 9 weeks, FIG. 8
Experimental: Anti-dsDNA antibodies are a type of antinuclear antibody (ANA) that target intracellular nuclear components and are present at high titers in systemic lupus erythematosus (SLE). These antibodies are associated with the persistent progression of kidney inflammation and damage.
Specifically, after the completion of the experiment, cardiac blood collection was performed on the experimental animals from <1-1>. The collected blood was allowed to coagulate for 30 minutes using a capillary blood collection tube (Cat. 365967, BD) and then centrifuged at 6,000×g for 10 minutes to obtain plasma. The obtained plasma was diluted at a ratio of 1:2,500, and the concentration of anti-dsDNA antibodies was measured using a Mouse Anti-dsDNA IgG Antibody ELISA Kit (Cat. 3031, Chondrex) according to the manufacturer's protocol.

[5] = sGal-9 2 mg/kg SC once per week
[6] = sGal-9 4 mg/kg SC once per week

B1: sGal-9: recombinant stabilized galectin-9 protein of Sequence No. 1: linker entirely deleted, CCRD positions 1 to 10 deleted, alanine 13 substituted with proline (protein)
chain: MAFSGSQAPYLSPAVPFSGTIQGGLQDGLQITVNGTVLSSSGTRFAVNFQTGFSGNDIAFHFNPRFEDGGYVVCNTRQNGSWGPEERKTHMPFQKGMPFDLCFLVQSSDFKVMVNGILFVQYFHRVPFHRVDTISVNGSVQLSYISFQHPPYPMPFITTILGGLYPSKSILLSGTVLPSAQRFHINLCSGNHIAFHLNPRFDENAVVRNTQIDNSWGSEERSLPRKMPFVRGQSFSVWILCEAHCLKVAVDGQHLFEYYHRLRNLPTINRLEVGGDIQLTHVQT
modifications: sGal-9
For B1, which “reduction in skin lesions compared to positive control (Mycophenolate)” value (MRL/FAS^lpr mice [1]; [5]) is on record?
Its value is “more pronounced”.

And the “skin lesions (skin score) compared to negative control (Vehicle)” value (MRL/FAS^lpr mice [1]; [5])?
Its value is “reduced”.

What about the “inhibitory effect on lymphadenopathy compared to positive control (Mycophenolate)” value (MRL/FAS^lpr mice [1]; [5]) of the same molecule?
Its value is “more pronounced”.

And the “lymphadenopathy score compared to negative control (Vehicle)” value (MRL/FAS^lpr mice [1]; [5])?
Its value is “decreased”.

What about the “proteinuria compared to negative control (Vehicle)” value (MRL/FAS^lpr mice [1]; [5]) of the same molecule?
Its value is “decreased”.

What about the “reduction in skin lesions compared to positive control (Mycophenolate)” value (MRL/FAS^lpr mice [1]; [6]) of the same molecule?
Its value is “more pronounced”.

And the “skin lesions (skin score) compared to negative control (Vehicle)” value (MRL/FAS^lpr mice [1]; [6])?
Its value is “reduced”.

What about the “inhibitory effect on lymphadenopathy compared to positive control (Mycophenolate)” value (MRL/FAS^lpr mice [1]; [6]) of the same molecule?
The value was “more pronounced”.

And the “lymphadenopathy score compared to negative control (Vehicle)” value (MRL/FAS^lpr mice [1]; [6])?
Its value is “decreased”.

And the “proteinuria compared to negative control (Vehicle)” value (MRL/FAS^lpr mice [1]; [6])?
The value was “decreased”.

What about the “spleen weight compared to negative control (Vehicle)” value (MRL/FAS^lpr mice [2]) of the same molecule?
The value was “decreased”.

What about the “glomerular lesion scores compared to negative control (Vehicle)” value (MRL/FAS^lpr mice [3]; [5]) of the same molecule?
The value was “decreased”.

What about the “inflammatory cell infiltration within the glomeruli” value (MRL/FAS^lpr mice [3]; [5]) of the same molecule?
The value was “reduction”.

And the “glomerular lesion scores compared to negative control (Vehicle)” value (MRL/FAS^lpr mice [3]; [6])?
The value was “decreased”.

And the “inflammatory cell infiltration within the glomeruli” value (MRL/FAS^lpr mice [3]; [6])?
The value was “reduction”.

And the “IgG deposition in the kidney compared to negative control (Vehicle)” value (MRL/FAS^lpr mice [4]; [5])?
Its value is “decreased”.

What about the “IgG deposition in the kidney compared to negative control (Vehicle)” value (MRL/FAS^lpr mice [4]; [6]) of the same molecule?
The value was “decreased”.

What about the “concentration of anti-dsDNA antibodies in plasma compared to negative control (Vehicle)” value (anti-dsDNA antibodies; [5]) of the same molecule?
The value was “decreased”.

And the “concentration of anti-dsDNA antibodies in plasma compared to negative control (Vehicle)” value (anti-dsDNA antibodies; [6])?
Its value is “decreased”.

What about the “reduction in anti-dsDNA antibody levels compared to positive control (Mycophenolate)” value (anti-dsDNA antibodies; [6]) of the same molecule?
Its value is “superior reduction”.
